Columns and labels:
[1] = target: T1, StrepII-CERTL^P (hyperphosphorylated StrepII-tagged CERTL) (human, UniProt Q9Y5P4-1 1-624, hyperphosphorylated (sites not given)); assay: ITC; 25 °C; 20 mM Tris pH 8.5, 500 mM NaCl, 0.5 mM TCEP; CERTL forms in the syringe titrated into pUL21 forms in the cell; one-site binding model; conditions: both partners purified
T1 construct: human CERTL, UniProt Q9Y5P4-1, synthetic gene; Trimer by SEC-MALS (observed 184.3 kDa, expected 215.7 kDa); not shown: StrepII, N-terminal, kept
T1 sequence (looked up): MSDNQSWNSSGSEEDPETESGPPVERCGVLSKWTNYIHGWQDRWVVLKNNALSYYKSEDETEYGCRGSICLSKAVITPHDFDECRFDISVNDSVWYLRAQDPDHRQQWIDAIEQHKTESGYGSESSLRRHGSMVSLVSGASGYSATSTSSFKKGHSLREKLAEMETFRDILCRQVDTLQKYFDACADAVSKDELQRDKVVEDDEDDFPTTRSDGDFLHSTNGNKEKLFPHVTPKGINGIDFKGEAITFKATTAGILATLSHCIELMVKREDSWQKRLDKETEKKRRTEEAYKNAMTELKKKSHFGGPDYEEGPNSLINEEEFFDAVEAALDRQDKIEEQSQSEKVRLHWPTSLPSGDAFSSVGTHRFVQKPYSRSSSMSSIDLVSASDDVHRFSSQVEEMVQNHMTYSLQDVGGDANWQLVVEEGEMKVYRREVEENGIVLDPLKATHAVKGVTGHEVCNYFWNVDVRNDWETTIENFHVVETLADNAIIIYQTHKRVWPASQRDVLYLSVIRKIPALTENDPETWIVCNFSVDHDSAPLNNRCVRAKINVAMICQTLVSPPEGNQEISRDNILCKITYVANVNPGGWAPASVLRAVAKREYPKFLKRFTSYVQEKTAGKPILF

StrepII-CERTL^S132A = target: T2, StrepII-CERTL^S132A (human, UniProt Q9Y5P4-1 1-624, S132A, hypophosphorylated); assay: as above; conditions: both partners purified
T2 construct: human CERTL, UniProt Q9Y5P4-1, synthetic gene, S132A; Trimer by SEC-MALS (observed 199.2 kDa); also called constitutively hypophosphorylated form of CERTL; source: Freestyle 293F, stably transfected, doxycycline-induced, purified (StrepTrap HP, Superose 6 SEC); not shown: StrepII, N-terminal, kept
T2 sequence (looked up): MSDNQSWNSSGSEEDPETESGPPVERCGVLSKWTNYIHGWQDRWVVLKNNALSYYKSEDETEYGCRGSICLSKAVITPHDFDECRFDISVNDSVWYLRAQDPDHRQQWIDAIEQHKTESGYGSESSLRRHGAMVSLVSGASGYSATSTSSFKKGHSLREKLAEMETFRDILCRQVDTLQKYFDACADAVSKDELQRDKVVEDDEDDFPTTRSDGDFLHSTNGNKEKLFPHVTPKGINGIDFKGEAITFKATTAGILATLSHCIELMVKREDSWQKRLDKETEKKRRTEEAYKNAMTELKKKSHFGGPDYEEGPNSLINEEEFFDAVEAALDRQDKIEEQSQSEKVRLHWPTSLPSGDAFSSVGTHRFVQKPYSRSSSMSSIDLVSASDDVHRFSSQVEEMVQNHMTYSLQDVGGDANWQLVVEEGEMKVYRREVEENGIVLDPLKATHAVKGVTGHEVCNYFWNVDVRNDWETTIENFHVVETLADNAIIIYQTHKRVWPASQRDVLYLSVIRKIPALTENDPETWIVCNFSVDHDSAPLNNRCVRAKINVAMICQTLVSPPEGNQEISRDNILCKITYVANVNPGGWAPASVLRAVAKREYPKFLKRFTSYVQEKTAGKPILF

StrepII-CERT^P = target: T3, StrepII-CERT^P (UniProt Q9Y5P4-2 1-598, hyperphosphorylated (sites not given)); assay: cell-based or functional assay
T3 sequence (looked up): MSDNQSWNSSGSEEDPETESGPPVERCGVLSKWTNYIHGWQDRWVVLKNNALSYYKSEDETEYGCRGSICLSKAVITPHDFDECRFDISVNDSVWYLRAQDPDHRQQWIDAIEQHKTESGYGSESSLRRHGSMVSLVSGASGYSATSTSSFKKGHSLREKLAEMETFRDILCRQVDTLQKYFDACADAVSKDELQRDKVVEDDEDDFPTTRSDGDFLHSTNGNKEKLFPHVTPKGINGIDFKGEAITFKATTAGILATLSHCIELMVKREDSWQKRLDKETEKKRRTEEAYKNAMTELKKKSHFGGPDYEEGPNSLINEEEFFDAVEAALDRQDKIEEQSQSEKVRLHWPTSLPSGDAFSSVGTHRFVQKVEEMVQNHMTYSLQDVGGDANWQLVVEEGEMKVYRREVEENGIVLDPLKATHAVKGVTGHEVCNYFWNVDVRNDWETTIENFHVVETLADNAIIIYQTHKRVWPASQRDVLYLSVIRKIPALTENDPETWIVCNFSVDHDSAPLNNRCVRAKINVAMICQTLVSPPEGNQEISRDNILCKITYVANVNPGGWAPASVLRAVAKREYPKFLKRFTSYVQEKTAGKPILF

B1: pUL21-H6 (natural protein)
chain: MELSYATTMHYRDVVFYVTTDRNRAYFVCGGCVYSVGRPCASQPGEIAKFGLVVRGTGPDDRVVANYVRSELRQRGLQDVRPIGEDEVFLDSVCLLNPNVSSELDVINTNDVEVLDECLAEYCTSLRTSPGVLISGLRVRAQDRIIELFEHPTIVNVSSHFVYTPSPYVFALAQAHLPRLPSSLEALVSGLFDGIPAPRQPLDAHNPRTDVVITGRRAPRPIAGSGAGSGGAGAKRATVSEFVQVKHIDRVGPAGVSPAPPPNNTDSSSLVPGAQDSAPPGPTLRELWWVFYAADRALEEPRADSGLTREEVRAVRGFREQAWKLFGSAGAPRAFIGAALGLSPLQKLAVYYYIIHRERRLSPFPALVRLVGRYTQRHGLYVPRPDDPVLADAINGLFRDALAAGTTAEQLLMFDLLPPKDVPVGSDVQADSTALLRFIESQRLAVPGGVISPEHVAYLGAFLSVLYAGRGRMSAATHTARLTGVTSLVLAVGDVDRLSAFDRGAAGAASRTRAAGYLDVLLTVRLARSQHGQSV
notes: HSV-1 pUL21, UniProt F8RG07; some paragraphs print H6-pUL21; also called H6-pUL21; WT pUL21; source: E. coli T7 Express lysY/Iq, purified (Ni-NTA, SEC); not shown: His6, C-terminal, kept
In the case of B1, the Kd [1] is reported as 773 nM, the Kd (StrepII-CERTL^S132A) is reported as 642 nM and the “EC50 of pUL21-H6 (62.5 nM to 4 μM) for accelerating GST-PP1-mediated dephosphorylation of 0.5 μM CERT^P in vitro, all proteins purified, 25 nM GST-PP1γ, 30 min at 30 °C” value (StrepII-CERT^P) is reported as 0.491 μM.
